# B1: PhBS: heterodimeric Petunia hybrida benzaldehyde synthase of PhBSα (SEQ ID NO: 1) and PhBSβ (SEQ ID NO: 2) subunits, 1:1 ratio (protein, listed as Petunia hybrida)
# alpha: MEKQTQARFLEPWRDLKGKVVMVTGASSGIGLDLCLDLAKAGCKIIAAARRVDRLKSLCNQINAAADDDDDNNRAVAVELDVSANGDAIEAAVKEAWGAFGRIDALVNNAGVRGTVHSPLELTEEECHNTFRTNLTGTWLVSKYVCKFMRDAKQGGSVINISSIAGLNRGQLPGGLAYVSSKGAVNMVTKVMALELGVDKIRVNSISPGLFKSEITQGLIQKEWLNNVAMRTIPLRTHGNSADPALTSVVRYLIHDSSEYVSGNLFIVDAGATLPGVPIFSSL
# beta: MENSGKKVLLTSNGDDICNNIAYHLAQRGCQLVLMGNESQLKSVAEMIKQSLGGSAAVEVVGLDMEEDREAAFEEAVDKAWKIFGKLDALVNCYSYEGKMQDPLQLIEEEFKKIVKINFMAGWYLMKCISKKMRDDKSGGSIVFLTSIIGAERGIYQGAAAYGSCLGGIQQLVRLAAIELGKHQIRVNGISRGLHLQDEYPKAVGLERAEKMTKEAAPLNRWLDVKKDLASTVIYLISDDSRYMTGTSIFVDGAQSLVRPRMRSYM
# Key:
# [1] = Substrate specificity of purified BS with benzoyl-CoA and hydroxycinnamoyl-CoA analogs (GC-MS); assay type: biochemical; conditions: 1:1 ratio between α and β subunits, NADPH; cinnamoyl-, para-coumaroyl-, caffeoyl-, feruloyl-, sinapoyl-CoA versus benzoyl-CoA
# Text: The response of internal standard in each run was set as 100%.
# To analyze substrate specificity of PhBS, CoA esters were enzymatically synthesized from cinnamic acid, para-coumaric acid, caffeic acid, ferulic acid and sinapic acid using purified recombinant petunia 4-coumarate:CoA ligase (Ph4CL1) purified using the protocols described herein (FIG. 11B; triangle indicates the position of the Ph4CL1 protein). […] The experiment was repeated at least six times with similar results.
# To test whether AtBS is involved in the biosynthesis of other aromatic aldehydes, hydroxycinnamoyl-CoA thioesters were incubated with purified AtBS enzyme, and the corresponding aldehyde formation was analyzed. Briefly, GC-MS analysis was performed of the products formed by AtBS from different hydroxycinnamoyl-CoA substrates. […] Shown in FIG. 22 are the combined EICs of mass units 106 (benzaldehyde), 128 (internal standard), 131 (cinnamaldehyde), and 178 (coniferaldehyde).
# [2] = Purified PhBS with short-chain fatty acyl-CoA substrates (GC-MS); assay type: biochemical; conditions: 1 mM fatty acyl-CoA, 28° C., 1 hour
# Method: Given the peroxisomal localization of PhBS, it was also analyzed if purified PhBS could be involved in metabolism of short-chain fatty acyl-CoA esters. […] All reactions were carried out at 28° C. for 1 hour.
# [3] = tested on: N. benthamiana leaves; assay: Reconstitution of benzaldehyde biosynthetic pathway in N. benthamiana leaves, benzylalcohol formation; assay type: in vivo, Nicotiana benthamiana; conditions: 150 mM Phe feeding for 24 hours, after Viscozyme treatment; means ± SE, n=5
# Text: In addition, the complete benzaldehyde β-oxidative biosynthetic pathway was reconstituted in N. benthamiana by expressing together with the PhBS four additional genes encoding phenylalanine ammonia lyase 1 (PhPAL1), PhCNL, PhCHD and PhKAT. Klempien et al. (2012), supra; Qualley et al., Completion of the core 0-oxidative pathway of benzoic acid biosynthesis in plants. Proceedings of the National Acad of Sciences of the U.S.A. 109: 16383-16388 (2012); Moerkercke et al., A plant thiolase involved in benzoic acid biosynthesis and volatile benzenoid production, The Plant J. 60: 292-302 (2009).
# The coding sequences of PhPAL1, PhCNL, PhCHD, PhKAT, PhBSα (SEQ ID NO: 1) and PhBSβ (SEQ ID NO: 2) were PCR amplified with gene-specific primers (see Table 1 of FIG. 24) from petunia flower cDNAs and cloned into binary vector pCNHP using ClonExpress II One Step Cloning Kit (Vazyme Biotech Co., Piscataway, NJ). After sequence verification, plasmids were transformed into Agrobacterium tumefaciens strain GV3101. Single colonies for each construct were picked and cultured at 28° C. in 3 mL of LB medium supplied with 50 mg/L rifampicin, 50 mg/L gentamycin and 50 mg/L kanamycin to an OD600 of about 2.0. Bacterial cultures were pelleted, washed with a 10 mM MgCl2 solution containing 200 μM acetosyringone, and incubated in the same solution for additional 2 hours at room temperature. […]
molecule,measurement,setting,value
B1,substrate specificity (aldehyde formation from CoA esters),[1],strict substrate selectivity for benzoyl-CoA
same,product formed from hexanoyl-CoA,[2],only trace amounts of hexanal were detected
same,benzylalcohol produced in infiltrated leaves,[3],327.9±14.3 nmol·g FW^−1

# From patent publication US20250034601A1, “HETERODIMERIC BENZALDEHYDE SYNTHASE, METHODS OF PRODUCING, AND USES THEREOF” (Purdue Research Foundation, priority 2021, published 2025)
